The chains are these.
B1: HDV Ribozyme (parent)
chain: GGCCGGCAUGGUCCCAGCCUCCUCGCUGGCGCCGGCUGGGCAACAUUCCGAGGGGACCGUCCCCUCGGUAAUGGCGAAUGGGACCCA

In the data set the parent is B1. The experiment in a line: self-cleavage, relative activity (ratio to wild type); higher = more cleavage; co-transcriptional.
As to C14A A83C, the self-cleavage turned out to be 0.0755.

For C13G C49A, the self-cleavage was found to be 0.123. In the case of C13G G55U it was 0.0583; in that of C13G G55C, 0.135.

Consider C13U U60C, for which the self-cleavage came out at 0.831. In the case of C13U U60G it was 0.831; in that of C13U C57G, 0.587; in that of C14A U79C, 0.173. In the case of C14A U79A it was 0.369; in that of C13U G39C, 0.0369; in that of C13U G39A, 0.332. Regarding C13U G31A, the self-cleavage came to 0.131. With C13U G31C, the self-cleavage came to 0.198. On to C14A U23G, for which the self-cleavage came out at 0.222. For the variant C14A C41U, the self-cleavage worked out at 0.539. As for C13U G59A, the self-cleavage turned out to be 0.763. In the case of C13U C86A it was 0.96; in that of C14A C75A, 0.208; in that of C14A C75G, 0.256.

Consider C14A C62G, for which the self-cleavage was 0.582. In the case of C14A C62A it was 1.06; in that of C14A C62U, 0.623. As for C13U C64G, the figure is 0.567. In the case of C13U C64A it was 0.807; in that of C14A G40A, 0.706; in that of C14A A78C, 0.158. For C13G U79A, the self-cleavage is 0. As for C13G U79G, the figure is 0.0755. As for C13G G74U, the figure is 0.0386; as for C13G G74A, 0.0405; as for C14A C63U, 0.731.

C14A C63A: the self-cleavage worked out at 0.755. In the case of C13G C15A, the self-cleavage was determined as 0.128. In the case of C13G C15U, the self-cleavage was 0. In the case of C14A G55U it was 0.73; in that of C14A G55C, 0.767; in that of C13U C75G, 0.0723. As for C13G U47C, the figure is 0; as for C13G U47G, 0.151; as for C13G U47A, 0. As for C13G A70G, the figure is 0.229. On to C13G A70C, for which the self-cleavage came out at 0. In the case of C13U G81U it was 0.163. In the case of C14A C57G it was 0.72; in that of C14A C57U, 1.23.

In the case of C13G U46A, the self-cleavage was 0.0615. Regarding C14A G82A, the self-cleavage stood at 0.415. For the variant C14A C84G, the self-cleavage came to 0.623.

Take C14A G29U: the self-cleavage is 0.0966.

C13G C44U: the self-cleavage turned out to be 0. Regarding C13G C44A, the self-cleavage stood at 0.0449. As for C14A G39A, the figure is 0.177; as for C14A G39U, 0.222; as for C14A A71U, 0.852. In the case of C14A A71G it was 0.499; in that of C14A A51G, 0.755. In the case of C14A A51U it was 0.779; in that of C13U C15G, 0.356.

With C13U C15U, the self-cleavage stood at 0.733. In the case of C13U A51G it was 0.89; in that of C13U A51C, 0.997. Consider C13U A78C, for which the self-cleavage came out at 0.119. Turning to C13G G54A, the self-cleavage was found to be 0.0604. In the case of C13G G54C it was 0.115. As for C13G G54U, the figure is 0.0282; as for C14A G35C, 0.0536; as for C14A G35A, 0.0426. As for C14A G35U, the self-cleavage amounted to 0.232. Consider C14A U72A, for which the self-cleavage came to 0.332. As for C14A U72G, the figure is 0.151; as for C13U, 0.683. As for C13G U60C, the figure is 0. C13G U60A: the self-cleavage came to 0.237.

C14A G81U: the self-cleavage amounted to 1.15. As for C14A G81A, the figure is 0.911. As for C14A G81C, the figure is 1.22.

Consider C13U U27C, for which the self-cleavage was 0.615. As for C13U U27G, the self-cleavage was found to be 1.06.

In the case of C13U C84G, the self-cleavage was 0.969. C13U C84A: the self-cleavage was found to be 0.911. In the case of C13G G29A it was 0.0573. In the case of C13G G29U, the self-cleavage was determined as 0.0415. As for C14A C24U, the figure is 0.0361.

As to C14A U60A, the self-cleavage worked out at 0.499. For C13U C58G, the self-cleavage amounted to 0.554. In the case of C13U C58A it was 0.665; in that of C13U C85A, 0.475; in that of C13U C85G, 0.332. In the case of C13U C85U it was 0.332.

On to C13G G40U, for which the self-cleavage is 0.104. In the case of C13G G40A it was 0.119; in that of C14A C26G, 0.831; in that of C14A C26A, 0.966. As for C14A A43C, the figure is 0.0396.

Regarding C14A A43U, the self-cleavage worked out at 0.145. As for C14A A43G, the self-cleavage amounted to 0.

Turning to C14A G34U, the self-cleavage was determined as 0.101. In the case of C14A G67U it was 0.532. Regarding C14A G67A, the self-cleavage is 0.435.

C13U C66G: the self-cleavage was 0.589. As for C13U C66U, the figure is 0.698; as for C14A C18G, 0; as for C14A C18U, 0.

For C13G A56U, the self-cleavage is 0. Consider C13U A87G, for which the self-cleavage was 0.634. In the case of C13U A87U it was 0.819; in that of C13U A87C, 0.647; in that of C14A, 0.761.

Regarding C13U C33G, the self-cleavage was 0.252. Take C13U C33U: the self-cleavage is 0.397. In the case of C13U G80C it was 0.0332; in that of C13U C48A, 0.415; in that of C13U C48G, 0.499. In the case of C14A G54C it was 0.536; in that of C13U C49U, 0.256. As for C13U C49G, the figure is 0.426. In the case of C14A C44U, the self-cleavage was 0.166. In the case of C14A C44G, the self-cleavage is 0.346. In the case of C13U A70U it was 0.342. In the case of C13U A70C it was 0.453; in that of C14A U65G, 0.688. In the case of C14A U37G it was 0.104; in that of C14A U37A, 0.0405; in that of C14A U47A, 0.639. As for C13G C22U, the self-cleavage came out at 0. As for C14A A77G, the figure is 0.755; as for C13G C48A, 0.26; as for C13G C48G, 0.0615. Consider C14A U20G, for which the self-cleavage was determined as 0. As for C14A G73A, the figure is 0.383; as for C14A G73U, 0.13. In the case of C13G C85G it was 0.0692; in that of C13G G38U, 0.0292. As for C13G G38A, the figure is 0.0302; as for C13G G73A, 0.0665. C13G G73C: the self-cleavage was 0.0396. In the case of C13G G73U it was 0.0361.

Consider C13G A87G, for which the self-cleavage was found to be 0.0903.

C13G A87C: the self-cleavage stood at 0. Regarding C13G C14A, the self-cleavage stood at 0. As to C13G C14U, the self-cleavage was determined as 0.208. Regarding C13G U65G, the self-cleavage stood at 0.115. In the case of C13U C26U it was 1.07; in that of C13U C26G, 0.831. In the case of C13U C26A it was 1.23. C14A U46A: the self-cleavage amounted to 0.199. In the case of C14A U46C, the self-cleavage came to 0.237. As for C13G C57G, the figure is 0.107. As for C13G C57U, the self-cleavage was 0.0426. Regarding C13G C57A, the self-cleavage was 0.0554. With C13U G52C, the self-cleavage is 0.639. Regarding C14A G50U, the self-cleavage is 0.467. As for C13U C44G, the self-cleavage came to 0.332. In the case of C13U C44U it was 0.185; in that of C13U C44A, 0.18. As for C13G G76U, the figure is 0.104; as for C13G C41A, 0.0489; as for C13G C41G, 0. As to C14A C85U, the self-cleavage was 0.724. Consider C14A C85G, for which the self-cleavage was 0.906. Turning to C13U C36U, the self-cleavage worked out at 0.256. In the case of C13G G28U it was 0; in that of C14A A56G, 0.57. As for C14A A56C, the figure is 0.539; as for C13U G76U, 0.813. Turning to C13U C24G, the self-cleavage was found to be 0.0615. With C13U C24A, the self-cleavage amounted to 0.381.

These data come from the RNAGym collection of RNA variant scans (doi:10.7554/elife.80360).
